Consider 19 molecules from patent EP3964526A1 (Novartis AG, dated 2022).

B1: 610-min (scFv)
chain: EIVMTQSPSTLSASVGDRVIITCQASQSISSWLSWYQQKPGKAPKLLIYQASTLASGVPSRFSGSGSGAEFTLTISSLQPDDFATYYCQNNYGFRSYGGAFGQGTKLTVLGGGGGSGGGGSGGGGSGGGGSEVQLVESGGGLVQPGGSLRLSCAASGIDFSGAYYMGWVRQAPGKGLEWVSYIDYDGDRYYASWAKGRFTISRDNSKNTLYLQMNSLRAEDTAVYYCAKSDYSSGWGTDIWGQGTLVTVSS
B2: 610-max (scFv)
chain: B1 chain with A69T, A154T, S181G, R203K, N205T, L210V, K229R
B3: 435-max (scFv)
chain: EIVMTQSPSTLSASVGDRVIITCQASQSIGSSLAWYQQKPGKAPKLLIYTAANLASGVPSRFSGSRSGAEFTLTISSLQPDDFATYYCQNFATSDTVTFGQGTKLTVLGGGGGSGGGGSGGGGSGGGGSEVQLVESGGGLVQPGGSLRLSCKASGFSLNTNYWMCWVRQAPGKGLEWVGCMYTGSYNRAYYASWAKGRFTSSKDTSKNTVYLQMNSLRAEDTAVYYCAKGSNWYSDLWGQGTLVTVSS
B4: 534-max (scFv)
chain: EIVMTQSPSTLSASVGDRVIITCQASQSINIWLSWYQQKPGKAPKLLIYKESTLASGVPSRFSGSGSGTEFTLTISSLQPDDFATYYCQNNYDSGNNGFPFGQGTKLTVLGGGGGSGGGGSGGGGSGGGGSEVQLVESGGGLVQPGGSLRLSCTASGFSLSYYYMSWVRQAPGKGLEWVGIIGPGDYTDYASWAKGRFTISKDTSKNTVYLQMNSLRAEDTAVYYCARGDDNSGWGEDIWGQGTLVTVSS
B5: 375-min (scFv)
chain: EIVMTQSPSTLSASVGDRVIITCQASENINIWLSWYQQKPGKAPKLLIYQASKLASGVPSRFSGSGSGAEFTLTISSLQPDDFATYYCQNNYSYNRYGAPFGQGTKLTVLGGGGGSGGGGSGGGGSGGGGSEVQLVESGGGLVQPGGSLRLSCAASGFSFTTTDYMCWVRQAPGKGLEWVSCILAGDGSTYYANWAKGRFTISRDNSKNTLYLQMNSLRAEDTAVYYCAKSDPASSWSFALWGQGTLVTVSS
B6: 375-max (scFv)
chain: B5 chain with A69T, E70Q, A154K, S181G, I202G, R204K, N206T, L211V, K230R
B7: 509-max (scFv)
chain: EIVMTQSPSTLSASVGDRVIITCQASQNIRIWLSWYQQKPGKAPKLLIYKASTLESGVPSRFSGSGSGTEFTLTISSLQPDDFATYYCQNNAHYSTNGGTFGQGTKLTVLGGGGGSGGGGSGGGGSGGGGSEVQLVESGGGLVQPGGSLRLSCTASGFSLSSYYMCWVRQAPGKGLEWVGCLDYVGDTDYASWAKGRFTISKDASKNTVYLQMNSLRAEDTAVYYCARTDDSRGWGLNIWGQGTLVTVSS
B8: EP15_min (scFv)
chain: EIVMTQSPSTLSASVGDRVIITCQASENIYTSLAWYQQKPGKAPKLLIYSASTLASGVPSRFSGSGSGAEFTLTISSLQPDDFATYYCQQGFATSNVENPFGQGTKLTVLGGGGGSGGGGSGGGGSGGGGSEVQLVESGGGLVQPGGSLRLSCAASGFTFSRYGVSWVRQAPGKGLEWVSAIGETGRAYYANWAKSRFTISRDNSKNTLYLQMNSLRAEDTAVYYCAKGEEFNNGWGAFNIWGQGTLVTVSS
B9: EP43_min (scFv)
chain: EIVMTQSPSTLSASVGDRVIITCQASQSISDWLAWYQQKPGKAPKLLIYGASRLASGVPSRFSGSGSGAEFTLTISSLQPDDFATYYCQQGWSDSYVDNLFGQGTKLTVLGGGGGSGGGGSGGGGSGGGGSEVQLVESGGGLVQPGGSLRLSCAASGFSLSSGAMSWVRQAPGKGLEWVSVIISSGATYYASWAKGRFTISRDNSKNTLYLQMNSLRAEDTAVYYCAKGGPDDSNSMGTFDPWGQGTLVTVSS
B10: EP35_max (scFv)
chain: EIVMTQSPSTLSASVGDRVIITCQASQSISNLLAWYQQKPGKAPKLLIVAASKLASGVPSRFSGSGSGTEFTLTISSLQPDDFATYYCQQGWSHTNVDNTFGQGTKLTVLGGGGGSGGGGSGGGGSGGGGSEVQLVESGGGSVQPGGSLRLSCTASGFSFSVGYWICWVRQAPGKGLEWVACIDAGTSGGTYYATWAKGRFTISKDTSKNTVYLQMNSLRAEDTATYYCARGVSSNGYYFKLWGQGTTVTVSS
B11: EP19_max (scFv)
chain: EIVMTQSPSTLSASVGDRVIITCQASDNIYRGLAWYQQKPGKAPKLLIYDASTLQSGVPSRFSGSGSGTQFTLTISSLQPDDFATYYCLGVYGYSSDDGAAFGQGTKLTVLGGGGGSGGGGSGGGGSGGGGSEVQLVESGGGLVQPGGSLRLSCTVSGFSLNSNEISWVRQAPGKGLEWVGYIGNGGMTHYASWAKGRFTISRDTSKNTVYLQMNSLRAEDTAVYYCASSVEYTDLYYLNIWGQGTLVTVSS
B12: EP43_max (scFv)
chain: EIVMTQSPSTLSASVGDRVIIKCQASQSISDWLAWYQQKPGKAPKLLIYGASRLASGFPSRFSGSGSGAEFTLTISGLEPADFATYYCQQGWSDSYVDNLFGQGTKLTVLGGGGGSGGGGSGGGGSGGGGSEVQLVESGGGLVQPGGSLRLSCTVSGFSLSSGAMSWVRQAPGKGLEWVGVIISSGATYYASWAKGRFTISKDTSKNTVYLQMNSLRAEDTAVYYCARGGPDDSNSMGTFDPWGQGTLVTVSS
B13: EP1_max (scFv)
chain: EIVMTQSPSTLSASVGDRVIITCQSTESVYKNNYLAWYQQKPGKAPKLLIYDASTLASGVPSRFSGSGSGTEFTLTISSLQPDDFATYYCAGYYRSGSGTANGSFGQGTKLTVLGGGGGSGGGGSGGGGSGGGGSEVQLVESGGGSVQPGGSLRLSCTVSGIDLSNDAISWVRQAPGKGLEWVAYISDWSIRYYANWAQGRFTISKDTSKNTVYLQMNSLRAEDTATYYCARGAPGAGDNGIWGQGTTVTVSS
B14: EP42_max (scFv)
chain: B13 chain with S98F, S165R, A184S, S190G, R192K, N196S, A198V, Q199K
B15: EP6_min (scFv)
chain: EIVMTQSPSTLSASVGDRVIITCQASESIYSGLAWYQQKPGKAPKLLIYQASTLASGVPSRFSGSGSGAEFTLTISSLQPDDFATYYCQQGFGTSNVENPFGQGTKLTVLGGGGGSGGGGSGGGGSGGGGSEVQLVESGGGLVQPGGSLRLSCAASGFSLSRYGVSWVRQAPGKGLEWVSTIGEAGRAYYANWARSRFTISRDNSKNTLYLQMNSLRAEDTAVYYCAKGEVFNNGWGAFNIWGQGTLVTVSS
B16: EP6_max (scFv)
chain: B15 chain with A69T, E70D, T74A, A154T, A155V, S180G, F198S, N204T, L209V, K228R
B17: EP42_min (scFv)
chain: EIVMTQSPSTLSASVGDRVIITCQSTESVYKNNYLAWYQQKPGKAPKLLIYDASTLASGVPSRFSGSGSGAEFTLTISSLQPDDFATYYCAGYYRSGFGTANGSFGQGTKLTVLGGGGGSGGGGSGGGGSGGGGSEVQLVESGGGLVQPGGSLRLSCAASGFTFRNDAISWVRQAPGKGLEWVSYISDWGIKYYASWVKGRFTISRDNSKNTLYLQMNSLRAEDTAVYYCAKGAPGAGDNGIWGQGTLVTVSS
B18: EP34_max (scFv)
chain: EIVMTQSPSTLSASLGDRVIITCQSSQSVYGNIWMAWYQQKSGKAPKLLIYQASKLASGVPSRFSGSGSGAEFSLTISSLQPDDFATYYCQGNFNTGDRYAFGQGTKLTVLGGGGGSGGGGSGGGGSGGGGSEVQLVESGGGLVQPGGSLRLSCTASGFTISRSYWICWVRQAPGKGLEWVACIYGDNDITPLYANWAKGRFPVSTDTSKNTVYLQMNSLRAEDTAVYYCARLGYADYAYDLWGQGTLVTVSS
B19: EP15_max (scFv)
chain: EIVMTQSPSTLSASVGDRVIITCQASENIYTSLAWYQQKPGKAPKLLIYSASTLASGVPSRFSGSGSGTEFTLTISSLQPDDFATYYCQQGFATSNVENPFGQGTKLTVLGGGGGSGGGGSGGGGSGGGGSEVQLVESGGGSVQPGGSLRLSCTVSGFSLSRYGVSWVRQAPGKGLEWVGAIGETGRAYYANWAKSRSTISRDTSKNTVYLQMNSLRAEDTATYYCARGEEFNNGWGAFNIWGQGTTVTVSS

What is called Kd is the free concentration of one partner at which half of the binding sites on the other are occupied at equilibrium, for simple one-to-one binding. As usually defined, the koff is the rate constant with which the complex falls apart. One may read the kon as the rate constant with which the complex forms.

Residue numbers refer to the chain shown, from its start.

T2 sequence (P01375 77-233 limits assumed): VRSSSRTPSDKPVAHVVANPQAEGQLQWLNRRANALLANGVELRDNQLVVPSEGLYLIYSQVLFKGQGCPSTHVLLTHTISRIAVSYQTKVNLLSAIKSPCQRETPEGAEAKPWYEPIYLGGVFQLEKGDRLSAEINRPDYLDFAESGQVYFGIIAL

The target of one test is T1, recombinant human VEGF165 (PeproTech EC Ltd.) (human, UniProt P15692-4 27-191).
T1 construct: Amine-coupled to a CM4 sensor chip; also called hVEGF165
T1 sequence (P15692 other isoform, or with tags, fused parts or gaps limits assumed): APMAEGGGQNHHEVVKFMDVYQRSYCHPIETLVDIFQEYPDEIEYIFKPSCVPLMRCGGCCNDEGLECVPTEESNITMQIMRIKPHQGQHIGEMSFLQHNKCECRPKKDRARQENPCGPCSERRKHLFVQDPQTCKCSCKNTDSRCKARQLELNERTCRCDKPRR
The test can be described thus: SPR BIAcore T100, hVEGF165 amine-coupled on CM4 chip, scFv as analyte. A general note: SPR reads the build-up and loss of mass on a sensor chip optically.
For B1, the dissociation constant (Kd) worked out at 10.6 nM, the dissociation rate constant (koff) worked out at 0.00265 s⁻¹ and the kon was determined as 251000 M⁻¹ s⁻¹.
For B2 the same measures were 1.18 nM, 0.000601 s⁻¹ and 509000 M⁻¹ s⁻¹.
Consider B3, for which the equilibrium dissociation constant (Kd) worked out at 4.53 nM, the off-rate constant (koff) came out at 0.000755 s⁻¹ and the kon amounted to 167000 M⁻¹ s⁻¹.
B4: the Kd turned out to be 9.21 nM, the koff worked out at 0.0173 s⁻¹ and the kon was 1.88e+06 M⁻¹ s⁻¹.
Taken in the same sequence, the figures for B5 were 5.41 nM, 0.00501 s⁻¹ and 927000 M⁻¹ s⁻¹.
With B6, the Kd is 2.68 nM, the koff stood at 0.00655 s⁻¹ and the kon amounted to 2.44e+06 M⁻¹ s⁻¹.
Turning to B7, the dissociation constant (Kd) was found to be 1.21 nM, the koff is 0.00272 s⁻¹ and the on-rate constant (kon) worked out at 2.26e+06 M⁻¹ s⁻¹.

The next test concerns the target T2, Human TNFa N-his trimers (human, UniProt P01375 77-233).
T2 construct: Captured at 5 nM on an NTA sensor chip by the N-terminal his-tags; also called His-tagged TNF (produced at ESBATech); not shown: N-terminal his-tag
The test can be described thus: SPR BIAcore T100, His-tagged human TNF trimers captured on NTA chip, scFv as analyte.
The molecule B8 gave a Kd of 262 nM.
On the same count and under the same terms, in the case of B9 it was 5540 nM.
Regarding B10, the Kd was 0.194 nM.
For B11, binding was characterised by a dissociation constant (Kd) of 2.91 nM.
The molecule B12 returned a Kd of 0.251 nM.
For the molecule B13, binding was characterised by a dissociation constant (Kd) of 56.9 nM.
Molecule B14 displayed a Kd of 3.46 nM.
B15 displayed a Kd of 106 nM.
B16: the affinity, expressed as Kd, was 0.512 nM.
Turning to B17, the Kd stood at 58.7 nM.
In the case of B18, the affinity, expressed as Kd, was 0.0286 nM.
Turning to B19, binding was put at a Kd of 1.48 nM.

The target of the next test is VEGF (as used in the VEGFR competition ELISA). The test can be described thus: competition ELISA against hVEGR1, EC50 ratio to reference Luc. (ELISA stands for enzyme-linked immunosorbent assay.)
VEGF (as used in the VEGFR competition ELISA), sequence (P15692 whole entry): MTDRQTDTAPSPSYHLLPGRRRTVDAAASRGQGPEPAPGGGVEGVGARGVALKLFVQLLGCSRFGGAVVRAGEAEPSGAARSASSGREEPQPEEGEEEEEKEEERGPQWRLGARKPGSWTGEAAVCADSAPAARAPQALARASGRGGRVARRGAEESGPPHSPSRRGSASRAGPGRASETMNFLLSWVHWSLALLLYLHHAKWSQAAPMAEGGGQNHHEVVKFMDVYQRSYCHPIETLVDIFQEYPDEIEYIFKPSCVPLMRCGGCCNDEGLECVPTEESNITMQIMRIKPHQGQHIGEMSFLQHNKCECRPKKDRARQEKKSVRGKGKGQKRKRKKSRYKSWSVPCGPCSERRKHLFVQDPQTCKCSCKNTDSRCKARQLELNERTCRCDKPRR
With B7, the “Rel. activity hVEGR1 comp. ELISA (EC50Luc[nM]/EC50test[nM])” value was determined as 13 ratio.
